According to publication PMC2671584:

Experiments:
Assay in all cases: SPR; BIAcore 3000; ECM proteins immobilised on CM5 chips, endostatin injected at 0, 10, 50, 200 and 400 nM; 0.02 M Tris-HCl, 0.11 M NaCl, 0.05% P-20; 25 °C; flow 20 μl/min; global fit to the 1:1 Langmuir model; triplicates
[1] = biological target: mouse laminin-1-nidogen-1 complex (mouse) (UniProt P19137)
mouse perlecan (mouse) = mouse perlecan (mouse) (UniProt Q05793)
[2] = biological target: recombinant microfibrillar component fibulin-1 (UniProt Q08879)
Chain of UniProt Q08879 (Q08879 30-705): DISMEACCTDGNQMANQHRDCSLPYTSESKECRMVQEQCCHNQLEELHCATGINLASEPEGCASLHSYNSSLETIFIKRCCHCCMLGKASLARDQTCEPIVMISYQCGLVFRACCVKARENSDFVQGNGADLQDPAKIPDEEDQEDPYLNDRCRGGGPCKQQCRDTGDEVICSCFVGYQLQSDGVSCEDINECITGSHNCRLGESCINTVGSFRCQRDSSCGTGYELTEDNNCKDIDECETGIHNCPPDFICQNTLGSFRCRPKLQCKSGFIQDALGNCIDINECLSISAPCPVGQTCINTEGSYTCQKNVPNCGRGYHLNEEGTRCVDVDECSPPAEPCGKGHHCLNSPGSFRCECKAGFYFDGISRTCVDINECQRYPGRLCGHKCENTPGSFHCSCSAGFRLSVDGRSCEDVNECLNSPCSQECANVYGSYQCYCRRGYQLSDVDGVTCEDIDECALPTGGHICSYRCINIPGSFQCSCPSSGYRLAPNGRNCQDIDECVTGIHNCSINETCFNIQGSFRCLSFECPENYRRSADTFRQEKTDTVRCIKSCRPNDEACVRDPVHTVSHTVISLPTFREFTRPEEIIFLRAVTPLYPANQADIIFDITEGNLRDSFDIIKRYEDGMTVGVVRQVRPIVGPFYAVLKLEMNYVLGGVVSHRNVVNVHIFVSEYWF

Chain of UniProt Q05793 (Q05793 22-3707): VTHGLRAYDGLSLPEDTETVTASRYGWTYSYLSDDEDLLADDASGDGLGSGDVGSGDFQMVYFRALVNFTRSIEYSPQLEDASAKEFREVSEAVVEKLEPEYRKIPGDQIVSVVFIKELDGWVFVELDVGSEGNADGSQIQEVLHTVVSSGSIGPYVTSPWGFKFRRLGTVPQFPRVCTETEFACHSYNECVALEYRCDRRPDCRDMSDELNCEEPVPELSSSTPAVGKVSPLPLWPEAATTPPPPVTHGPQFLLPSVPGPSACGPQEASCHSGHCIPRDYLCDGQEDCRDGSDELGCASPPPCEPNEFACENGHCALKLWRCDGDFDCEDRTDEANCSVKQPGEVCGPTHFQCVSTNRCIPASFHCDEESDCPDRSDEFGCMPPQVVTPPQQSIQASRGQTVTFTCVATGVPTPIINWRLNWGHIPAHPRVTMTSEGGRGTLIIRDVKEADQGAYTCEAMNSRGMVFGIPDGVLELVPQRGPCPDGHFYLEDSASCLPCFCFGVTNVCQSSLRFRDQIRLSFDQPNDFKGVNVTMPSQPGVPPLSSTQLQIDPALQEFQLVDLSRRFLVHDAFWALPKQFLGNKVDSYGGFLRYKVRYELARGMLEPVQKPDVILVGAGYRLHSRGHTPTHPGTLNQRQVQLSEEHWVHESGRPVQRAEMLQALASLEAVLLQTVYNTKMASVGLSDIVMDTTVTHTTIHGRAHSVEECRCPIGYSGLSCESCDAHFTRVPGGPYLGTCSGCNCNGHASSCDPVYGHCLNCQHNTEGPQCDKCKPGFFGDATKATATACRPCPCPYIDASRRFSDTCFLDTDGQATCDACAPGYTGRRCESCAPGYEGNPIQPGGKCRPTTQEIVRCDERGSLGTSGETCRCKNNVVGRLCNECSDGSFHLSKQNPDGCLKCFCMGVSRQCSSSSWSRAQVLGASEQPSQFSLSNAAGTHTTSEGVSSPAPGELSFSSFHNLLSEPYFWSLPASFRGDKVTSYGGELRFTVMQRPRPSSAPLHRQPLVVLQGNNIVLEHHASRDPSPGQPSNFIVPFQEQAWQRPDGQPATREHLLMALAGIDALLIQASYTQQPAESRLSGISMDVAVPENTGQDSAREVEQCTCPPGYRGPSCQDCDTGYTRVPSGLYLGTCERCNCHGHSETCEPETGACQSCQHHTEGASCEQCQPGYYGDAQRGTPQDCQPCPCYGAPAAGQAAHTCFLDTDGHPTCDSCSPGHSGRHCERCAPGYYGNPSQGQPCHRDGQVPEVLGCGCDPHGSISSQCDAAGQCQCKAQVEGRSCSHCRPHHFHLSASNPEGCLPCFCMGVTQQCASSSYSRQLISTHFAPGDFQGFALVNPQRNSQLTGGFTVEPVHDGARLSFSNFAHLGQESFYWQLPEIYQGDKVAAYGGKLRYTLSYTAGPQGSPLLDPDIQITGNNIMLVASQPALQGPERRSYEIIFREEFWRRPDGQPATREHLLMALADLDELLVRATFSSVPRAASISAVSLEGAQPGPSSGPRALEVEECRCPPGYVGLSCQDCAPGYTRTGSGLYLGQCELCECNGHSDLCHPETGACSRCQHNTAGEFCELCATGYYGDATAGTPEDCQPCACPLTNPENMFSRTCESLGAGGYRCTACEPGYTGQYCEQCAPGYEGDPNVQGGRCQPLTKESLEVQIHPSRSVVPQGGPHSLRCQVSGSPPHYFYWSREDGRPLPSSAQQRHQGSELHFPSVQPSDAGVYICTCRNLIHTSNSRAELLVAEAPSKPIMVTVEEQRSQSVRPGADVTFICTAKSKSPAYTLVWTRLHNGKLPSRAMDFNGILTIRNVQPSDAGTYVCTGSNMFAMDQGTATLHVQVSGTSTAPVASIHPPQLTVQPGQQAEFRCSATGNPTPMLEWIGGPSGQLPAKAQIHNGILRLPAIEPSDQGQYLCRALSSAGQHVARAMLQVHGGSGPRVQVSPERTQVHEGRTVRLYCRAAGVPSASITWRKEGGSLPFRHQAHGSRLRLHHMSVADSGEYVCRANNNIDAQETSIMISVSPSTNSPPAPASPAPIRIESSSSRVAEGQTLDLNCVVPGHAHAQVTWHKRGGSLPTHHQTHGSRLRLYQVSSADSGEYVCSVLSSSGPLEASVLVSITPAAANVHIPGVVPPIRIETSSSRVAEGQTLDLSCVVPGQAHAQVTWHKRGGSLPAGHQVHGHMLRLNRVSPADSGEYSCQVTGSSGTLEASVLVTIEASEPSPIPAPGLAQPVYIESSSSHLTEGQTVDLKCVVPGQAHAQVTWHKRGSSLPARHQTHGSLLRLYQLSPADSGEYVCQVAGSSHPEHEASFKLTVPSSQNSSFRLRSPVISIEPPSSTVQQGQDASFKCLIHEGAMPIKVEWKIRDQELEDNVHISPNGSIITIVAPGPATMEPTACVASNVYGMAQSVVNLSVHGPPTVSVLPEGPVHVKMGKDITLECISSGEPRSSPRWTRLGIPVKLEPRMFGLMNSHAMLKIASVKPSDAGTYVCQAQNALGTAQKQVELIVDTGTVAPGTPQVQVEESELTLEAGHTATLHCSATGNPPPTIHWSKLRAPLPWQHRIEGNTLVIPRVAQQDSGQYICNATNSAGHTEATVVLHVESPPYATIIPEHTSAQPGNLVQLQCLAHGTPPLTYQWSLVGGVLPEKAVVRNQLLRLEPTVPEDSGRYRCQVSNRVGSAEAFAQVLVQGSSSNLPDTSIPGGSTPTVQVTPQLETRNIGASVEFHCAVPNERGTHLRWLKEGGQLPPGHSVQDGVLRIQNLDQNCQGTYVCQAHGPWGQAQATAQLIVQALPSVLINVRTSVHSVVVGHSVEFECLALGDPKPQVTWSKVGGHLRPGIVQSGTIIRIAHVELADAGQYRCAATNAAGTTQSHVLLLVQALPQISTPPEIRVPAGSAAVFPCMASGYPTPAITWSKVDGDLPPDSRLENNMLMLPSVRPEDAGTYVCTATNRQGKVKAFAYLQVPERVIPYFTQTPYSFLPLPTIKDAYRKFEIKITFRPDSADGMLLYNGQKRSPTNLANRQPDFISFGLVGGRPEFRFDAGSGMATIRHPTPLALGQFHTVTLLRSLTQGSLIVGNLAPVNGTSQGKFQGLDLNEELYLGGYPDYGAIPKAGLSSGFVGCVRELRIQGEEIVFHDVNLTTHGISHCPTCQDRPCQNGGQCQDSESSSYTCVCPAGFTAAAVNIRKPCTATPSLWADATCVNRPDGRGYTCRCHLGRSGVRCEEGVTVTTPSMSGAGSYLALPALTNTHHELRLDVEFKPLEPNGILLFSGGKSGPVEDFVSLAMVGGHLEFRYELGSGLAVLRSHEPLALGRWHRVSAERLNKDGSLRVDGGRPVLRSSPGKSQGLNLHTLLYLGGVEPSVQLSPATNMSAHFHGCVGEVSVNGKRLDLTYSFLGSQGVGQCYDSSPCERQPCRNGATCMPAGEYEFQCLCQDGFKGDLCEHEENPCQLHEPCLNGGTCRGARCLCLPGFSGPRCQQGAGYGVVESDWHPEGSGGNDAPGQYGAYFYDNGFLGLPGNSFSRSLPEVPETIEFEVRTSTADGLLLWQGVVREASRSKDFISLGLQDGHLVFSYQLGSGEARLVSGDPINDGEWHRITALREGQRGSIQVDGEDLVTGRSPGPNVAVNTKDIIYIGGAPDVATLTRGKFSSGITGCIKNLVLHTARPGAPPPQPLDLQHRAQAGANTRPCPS

Substance | Kd [1] [nM] | Kd (mouse perlecan (mouse)) [nM] | Kd [2] [nM]
p.A1381T endostatin (mutated endostatin domain, c.3601G>A) (domain or fragment) | 6.17 | 5.19 | 6.95
wild type human endostatin (endostatin domain of type XVIII collagen) (domain or fragment) | 3.48 | 5.53 | 3.1
